From doi:10.1101/2023.05.29.542693 (bioRxiv, 2023) come the findings set out here.

Series [1] concerns the molecule itself. Kind of series: cryo-EM structure.
Series [2] concerns the target Escherichia coli GroEL (wild-type, tetradecamer) (E. coli, UniProt P0A6F5 1-548). Nature of the series: cryo-EM structure.

Sequence of Escherichia coli GroEL (wild-type, tetradecamer) (P0A6F5 whole entry): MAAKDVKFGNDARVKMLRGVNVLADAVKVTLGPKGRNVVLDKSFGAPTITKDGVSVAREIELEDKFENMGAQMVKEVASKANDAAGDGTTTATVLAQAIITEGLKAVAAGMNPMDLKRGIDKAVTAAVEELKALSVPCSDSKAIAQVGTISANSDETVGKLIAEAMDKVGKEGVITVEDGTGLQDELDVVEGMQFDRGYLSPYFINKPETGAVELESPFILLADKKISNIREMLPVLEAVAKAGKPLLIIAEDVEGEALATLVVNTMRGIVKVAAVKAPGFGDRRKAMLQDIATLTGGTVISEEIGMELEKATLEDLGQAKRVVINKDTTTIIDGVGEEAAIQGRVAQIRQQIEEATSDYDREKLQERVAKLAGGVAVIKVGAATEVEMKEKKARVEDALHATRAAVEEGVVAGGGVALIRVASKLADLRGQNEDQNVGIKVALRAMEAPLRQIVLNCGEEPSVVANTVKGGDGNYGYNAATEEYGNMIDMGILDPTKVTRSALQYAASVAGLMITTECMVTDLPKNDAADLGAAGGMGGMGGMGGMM

B1: Escherichia coli GroES (heptameric co-chaperonin) (natural protein)
chain: MNIRPLHDRVIVKRKEVETKSAGGIVLTGSAAAKSTRGEVLAVGNGRILENGEVKPLDVKVGDIVIFNDGYGVKSEKIDNEEVLIMSESDILAIVEA
As for B1, the binding result in series [1] and in series [2] was “binds” each time.
